This note sets out measurements from patent CN114736303A (YINGNUO LAKE MEDICINE HANGZHOU CO LTD, dated 2022).

In the test the target is 4-1BB-mFc (UniProt Q07011 24-186). Put plainly: SPR (Biacore), multi-cycle kinetics, antibody captured by anti-human IgG on CM5 chip, 4-1BB antigen as analyte. (In general: Surface plasmon resonance follows binding to a sensor surface in real time, without labels.)

B1: hu10B2 (人源化4-1BB抗体) (antibody, V domains shown)
VH: QVQLVESGGGVVQPGRSLRLSCAASGFTFSTFGLHWVRQAPGKGLEWVAYISSDSNTIYYADTMKGRFTISRDNSKNTLYLQMNSLRAEDTAVYYCTRGDPAYYGYGGRFVYALDFWGQGTLVTVSS
VL: DVVVTQTPLSLSVTPGQPASISCRSSQSLTNSYGHTYLSWYLQKPGQSPQLLIYGISIRFSGVPDRFSGSGSGTDFTLKISRVEAEDVGVYYCLQGTHQPWTFGGGTKVEIK
notes: The antibody was captured with anti-human IgG in SPR; also called 4-1BB(hu10B2); hu10B2 4-1BB抗体
For orientation: Kd means the concentration at which binding is half-saturated. A low value points to higher affinity. For orientation: koff means the rate constant with which the complex falls apart. The kon is a measure of how fast the partners come together. A lower kon goes with slower complex formation. B1 returned a Kd of 0.338 nM, a koff of 0.000204 s⁻¹ and a kon of 602000 M⁻¹ s⁻¹.

B2: hu6F9B1A6/hu10B2-scFv双功能抗体 (人源化PD-L1/4-1BB双功能抗体) (bispecific antibody, human IgG4 S228P, F234A L235A)
heavy: QVQLVQSGAEVKKPGSSVKVSCKASGYTFIGYTVHWVRQAPGQGLEWIGWIYPGSGSIKYNEKFKDRATLTADKSTSTVYMELSSLRSEDTAVYYCARHGTGKFNYFDVWGQGTTVTVSSASTKGPSVFPLAPCSRSTSESTAALGCLVKDYFPEPVTVSWNSGALTSGVHTFPAVLQSSGLYSLSSVVTVPSSSLGTKTYTCNVDHKPSNTKVDKRVESKYGPPCPPCPAPEAAGGPSVFLFPPKPKDTLMISRTPEVTCVVVDVSQEDPEVQFNWYVDGVEVHNAKTKPREEQFNSTYRVVSVLTVLHQDWLNGKEYKCKVSNKGLPSSIEKTISKAKGQPREPQVYTLPPSQEEMTKNQVSLTCLVKGFYPSDIAVEWESNGQPENNYKTTPPVLDSDGSFFLYSRLTVDKSRWQEGNVFSCSVMHEALHNHYTQKSLSLSPGKGGGGSGGGGSDVVVTQTPLSLSVTPGQPASISCRSSQSLTNSYGHTYLSWYLQKPGQSPQLLIYGISIRFSGVPDRFSGSGSGTDFTLKISRVEAEDVGVYYCLQGTHQPWTFGGGTKVEIKGGGGSGGGGSGGGGSQVQLVESGGGVVQPGRSLRLSCAASGFTFSTFGLHWVRQAPGKGLEWVAYISSDSNTIYYADTMKGRFTISRDNSKNTLYLQMNSLRAEDTAVYYCTRGDPAYYGYGGRFVYALDFWGQGTLVTVSS
VL: DIQLTQSPSFLSASVGDRVTITCRASSTVNYMHWYQQKPGKAPKPWIYATFNLASGVPSRFSGSGSGTEYTLTISSLQPEDFATYYCQTWSSYPLTFGQGTKLEIK
notes: also called hu6F9B1A6/4-1BB; hu6F9B1A6-10B2-CC
Take B2: binding was characterised by a dissociation constant (Kd) of 0.423 nM, the koff was 0.000122 s⁻¹ and the kon turned out to be 289000 M⁻¹ s⁻¹.
